Experimental data reported in patent publication US20260085128A1 (BIOLEGEND, published 2026).

T1: human CD157 (human, UniProt Q10588 33-293)
T1 construct: Endogenous CD157 on human U-937 cells and on human blood monocytes and granulocytes; also called BST-1; bone marrow stromal cell antigen 1
T1 sequence: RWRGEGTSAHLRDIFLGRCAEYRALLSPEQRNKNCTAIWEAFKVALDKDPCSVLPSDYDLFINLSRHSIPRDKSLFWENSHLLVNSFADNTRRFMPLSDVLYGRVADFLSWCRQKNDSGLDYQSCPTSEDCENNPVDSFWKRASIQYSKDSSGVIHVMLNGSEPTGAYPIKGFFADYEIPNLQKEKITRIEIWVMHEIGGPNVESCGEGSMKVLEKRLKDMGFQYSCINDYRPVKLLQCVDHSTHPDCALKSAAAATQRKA


Key:
human CD157 [1] = molecular target: T1, human CD157; experiment: flow cytometry, summary sentence of Example 3
human CD157 [2] = molecular target: T1, human CD157; experiment: flow cytometry on U-937 cells, anti-rat IgG-PE secondary
Protocol: U-937 cells were grown in RPMI media supplemented with 10% FBS in T75 culture flask, to about 80% confluency. Various concentrations of exemplary generated anti-CD157 antibodies were added, including 2, 1, 0.5, 0.25, 0.125 and 0.06 μg, and allowed to incubate for 15 minutes. Cells were then washed twice with FACS wash buffer and stained with anti-rat IgG-PE secondary antibody for 15 minutes. Cells were washed with FACS buffer and analyzed on a BD LSRII flow cytometer.

Row | Binder | binding result (human CD157 [1]) | binding result (human CD157 [2])
1 | anti-CD157 monoclonal antibody AB3 (antibody, V domains shown, Hybridoma-derived monoclonal antibody; It was detected with an anti-rat IgG-PE secondary antibody; also called antibody 3; clone 3) VH: EVHLVESGGGLVQPGRSLKLSCAASGFTFSNYDMAWIRQAPAKGLEWVASISIRGGSTYYRDSVKGRFTVSRDNAKSTLYLQMDSLRSEDTATYYCVRGTDYYYDYFDYWGQGVMVTVSS VL: NIQMTQSPSLLSASVGDRVTLSCKAGRNINSYLAWYQQMLGEAPKLLIYNANSLQTGIPSRFSGSGSGTDYTLTISSLQPEDVATYFCQQYNSWTNTFGAGTKLELK | binds | –
2 | anti-CD157 monoclonal antibody AB1 (antibody, V domains shown, Hybridoma-derived monoclonal antibody; It was detected with an anti-rat IgG-PE secondary antibody; also called antibody 1; clone 1) VH: QVQLKESGPGLVQPSQTLSLTCTVSGFSLTSYHVSWVRQPPGKGLEWMGIIWTGGSTAYNSLLKSRLSISRDTSKSQVFLKMNSLQTEDTATYYCARSITPTFFDYWGQGVMVTVSS VL: QFVLTQPNSVSTNLGSTVKLSCKRSTGNFGNNYVNWYQQHEGRSPTTMIYRDDKRPDGVPDRFSGSIDRSSNSALLTISNVQTEDEADYFCQSYSSGIVFGGGTKLTVL | – | binds
